Test results from ChEMBL document CHEMBL3525955, “Glucuronidation of the red clover isoflavone irilone by liver microsomes from different species and human UDP-glucuronosyltransferases” (Drug Metab Dispos, 2011).
Blank lines part the entries; values can stand above or below the molecule they belong to.

Key:
Assay type in all cases: ADME
[1] = molecular target: T1, UDP-glucuronosyltransferase 1A10 (Homo sapiens, UniProt Q9HAW8); test: Drug level assessed as human recombinant UGT1A10-mediated glucuronidation treated with irilone incubated for 5 mins prior to UDPGA addition measured after 90 mins by HPLC-DAD analysis; details: recombinant enzyme, 1.5 h
T1 sequence (Q9HAW8 whole entry): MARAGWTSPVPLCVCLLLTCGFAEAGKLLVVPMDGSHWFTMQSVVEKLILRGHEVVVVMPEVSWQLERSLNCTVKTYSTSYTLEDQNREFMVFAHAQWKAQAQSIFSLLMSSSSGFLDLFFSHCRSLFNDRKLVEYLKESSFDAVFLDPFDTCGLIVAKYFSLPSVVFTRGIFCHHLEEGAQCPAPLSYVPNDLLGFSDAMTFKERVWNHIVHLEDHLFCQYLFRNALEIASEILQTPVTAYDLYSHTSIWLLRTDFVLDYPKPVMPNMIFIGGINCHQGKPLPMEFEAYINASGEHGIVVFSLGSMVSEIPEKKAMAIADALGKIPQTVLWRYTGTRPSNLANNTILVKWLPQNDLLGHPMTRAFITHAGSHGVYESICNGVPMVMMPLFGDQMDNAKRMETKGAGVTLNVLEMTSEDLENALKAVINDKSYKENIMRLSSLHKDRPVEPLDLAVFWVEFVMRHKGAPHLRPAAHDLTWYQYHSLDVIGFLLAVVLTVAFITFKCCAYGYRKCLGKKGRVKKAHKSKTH

[2] = molecular target: T2, UDP-glucuronosyltransferase 1A8 (Homo sapiens, UniProt Q9HAW9); test: Drug level assessed as human recombinant UGT1A8-mediated glucuronidation treated with 25 uM irilone incubated for 5 mins prior to UDPGA addition measured after 90 mins by HPLC-DAD analysis; details: recombinant enzyme, 1.5 h
T2 sequence (Q9HAW9 whole entry): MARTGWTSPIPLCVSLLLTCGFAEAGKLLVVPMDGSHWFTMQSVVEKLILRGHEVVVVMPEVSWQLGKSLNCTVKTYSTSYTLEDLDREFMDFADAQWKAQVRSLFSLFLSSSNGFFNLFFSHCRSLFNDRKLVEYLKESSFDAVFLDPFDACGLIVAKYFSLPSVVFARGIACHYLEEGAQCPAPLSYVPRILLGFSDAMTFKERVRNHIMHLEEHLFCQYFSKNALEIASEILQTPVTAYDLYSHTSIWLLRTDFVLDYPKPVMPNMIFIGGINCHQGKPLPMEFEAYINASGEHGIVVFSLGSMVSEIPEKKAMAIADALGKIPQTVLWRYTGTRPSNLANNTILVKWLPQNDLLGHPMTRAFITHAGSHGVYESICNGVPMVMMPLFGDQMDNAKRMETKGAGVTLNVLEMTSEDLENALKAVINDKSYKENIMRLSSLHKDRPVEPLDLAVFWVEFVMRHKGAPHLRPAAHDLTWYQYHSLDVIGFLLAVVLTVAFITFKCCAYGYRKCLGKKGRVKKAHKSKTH

[3] = molecular target: T3, UDP-glucuronosyltransferase 1A7 (Homo sapiens, UniProt Q9HAW7); test: Drug level assessed as human recombinant UGT1A7-mediated glucuronidation treated with 25 uM irilone incubated for 5 mins prior to UDPGA addition measured after 90 mins by HPLC-DAD analysis; details: recombinant enzyme, 1.5 h
T3 sequence (Q9HAW7 whole entry): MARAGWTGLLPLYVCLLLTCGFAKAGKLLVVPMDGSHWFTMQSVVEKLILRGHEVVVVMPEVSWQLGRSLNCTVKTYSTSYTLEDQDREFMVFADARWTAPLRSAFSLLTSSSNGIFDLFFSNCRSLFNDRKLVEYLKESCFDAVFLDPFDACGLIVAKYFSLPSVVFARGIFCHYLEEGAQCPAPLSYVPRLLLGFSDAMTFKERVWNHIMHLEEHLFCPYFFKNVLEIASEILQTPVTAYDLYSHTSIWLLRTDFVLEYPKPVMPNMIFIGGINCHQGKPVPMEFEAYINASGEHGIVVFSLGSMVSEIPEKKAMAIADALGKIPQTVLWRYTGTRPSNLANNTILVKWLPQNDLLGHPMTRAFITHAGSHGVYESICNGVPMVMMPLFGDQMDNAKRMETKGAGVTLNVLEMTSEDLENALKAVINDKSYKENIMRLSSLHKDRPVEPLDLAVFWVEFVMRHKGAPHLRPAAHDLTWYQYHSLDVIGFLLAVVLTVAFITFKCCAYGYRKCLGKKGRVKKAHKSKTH

[4] = molecular target: T4, UDP-glucuronosyltransferase 1A1 (Homo sapiens, UniProt P22309); test: Drug level assessed as human recombinant UGT1A1-mediated glucuronidation treated with 25 uM irilone incubated for 5 mins prior to UDPGA addition measured after 90 mins by HPLC-DAD analysis; details: recombinant enzyme, 1.5 h
T4 sequence (P22309 whole entry): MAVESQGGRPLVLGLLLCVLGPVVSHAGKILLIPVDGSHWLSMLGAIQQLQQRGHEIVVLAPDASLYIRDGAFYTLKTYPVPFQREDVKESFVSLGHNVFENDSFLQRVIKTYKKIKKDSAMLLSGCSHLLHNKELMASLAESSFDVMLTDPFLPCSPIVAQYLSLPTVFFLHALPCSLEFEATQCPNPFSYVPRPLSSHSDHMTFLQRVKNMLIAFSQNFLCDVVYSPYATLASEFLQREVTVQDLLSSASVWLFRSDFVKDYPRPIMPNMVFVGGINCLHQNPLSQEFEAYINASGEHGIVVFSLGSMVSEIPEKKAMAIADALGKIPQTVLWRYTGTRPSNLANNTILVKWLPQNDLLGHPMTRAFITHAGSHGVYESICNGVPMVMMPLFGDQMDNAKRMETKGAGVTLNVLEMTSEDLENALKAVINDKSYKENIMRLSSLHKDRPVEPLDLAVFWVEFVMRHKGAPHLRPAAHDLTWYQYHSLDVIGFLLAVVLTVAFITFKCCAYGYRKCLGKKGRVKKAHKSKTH

[5] = substrate: O=c1c(-c2ccc(O)cc2)coc2cc3c(c(O)c12)OCO3; test: Activity of human recombinant UGT1A9 assessed as IRI-O-5-monoglucuronide formation incubated for 5 mins prior to UDPGA addition measured after 90 mins by Eadie-Hoftsee plot analysis
[6] = substrate: O=c1c(-c2ccc(O)cc2)coc2cc3c(c(O)c12)OCO3; test: Activity of human recombinant UGT1A7 assessed as IRI-O-5-monoglucuronide formation incubated for 5 mins prior to UDPGA addition measured after 90 mins by Eadie-Hoftsee plot analysis
[7] = substrate: O=c1c(-c2ccc(O)cc2)coc2cc3c(c(O)c12)OCO3; test: Activity of human recombinant UGT1A1 assessed as IRI-O-5-monoglucuronide formation incubated for 5 mins prior to UDPGA addition measured after 90 mins by Eadie-Hoftsee plot analysis
[8] = substrate: O=c1c(-c2ccc(O)cc2)coc2cc3c(c(O)c12)OCO3; test: Activity of human recombinant UGT1A1 assessed as IRI-O-4'-monoglucuronide formation incubated for 5 mins prior to UDPGA addition measured after 90 mins by Eadie-Hoftsee plot analysis
[9] = substrate: O=c1c(-c2ccc(O)cc2)coc2cc3c(c(O)c12)OCO3; test: Activity of human recombinant UGT1A8 assessed as IRI-O-4'-monoglucuronide formation incubated for 5 mins prior to UDPGA addition measured after 90 mins by Eadie-Hoftsee plot analysis
[10] = substrate: O=c1c(-c2ccc(O)cc2)coc2cc3c(c(O)c12)OCO3; test: Activity of human recombinant UGT1A8 assessed as IRI-O-5-monoglucuronide formation incubated for 5 mins prior to UDPGA addition measured after 90 mins by Eadie-Hoftsee plot analysis
[11] = substrate: O=c1c(-c2ccc(O)cc2)coc2cc3c(c(O)c12)OCO3; test: Activity of human recombinant UGT1A10 assessed as IRI-O-4'-monoglucuronide formation incubated for 5 mins prior to UDPGA addition measured after 90 mins by Eadie-Hoftsee plot analysis

Drug metabolism [1]: metabolite_detected
Drug metabolism [2]: metabolite_detected
Drug metabolism [3]: metabolite_detected
Drug metabolism [4]: metabolite_detected
Molecule: O=C(O)[C@H]1O[C@@H](Oc2ccc(-c3coc4cc5c(c(O)c4c3=O)OCO5)cc2)[C@H](O)[C@@H](O)[C@@H]1O

Drug metabolism [1]: metabolite_detected
Molecule: COc1c2c(cc3occ(-c4ccc(O[C@@H]5O[C@H](C(=O)O)[C@@H](O)[C@H](O)[C@H]5O)cc4)c(=O)c13)OCO2

B1: UDP-glucuronosyltransferase 1A9 (Homo sapiens) (protein)
chain: MACTGWTSPLPLCVCLLLTCGFAEAGKLLVVPMDGSHWFTMRSVVEKLILRGHEVVVVMPEVSWQLGRSLNCTVKTYSTSYTLEDLDREFKAFAHAQWKAQVRSIYSLLMGSYNDIFDLFFSNCRSLFKDKKLVEYLKESSFDAVFLDPFDNCGLIVAKYFSLPSVVFARGILCHYLEEGAQCPAPLSYVPRILLGFSDAMTFKERVRNHIMHLEEHLLCHRFFKNALEIASEILQTPVTEYDLYSHTSIWLLRTDFVLDYPKPVMPNMIFIGGINCHQGKPLPMEFEAYINASGEHGIVVFSLGSMVSEIPEKKAMAIADALGKIPQTVLWRYTGTRPSNLANNTILVKWLPQNDLLGHPMTRAFITHAGSHGVYESICNGVPMVMMPLFGDQMDNAKRMETKGAGVTLNVLEMTSEDLENALKAVINDKSYKENIMRLSSLHKDRPVEPLDLAVFWVEFVMRHKGAPHLRPAAHDLTWYQYHSLDVIGFLLAVVLTVAFITFKCCAYGYRKCLGKKGRVKKAHKSKTH
Km [5]: 5 µM
Vmax [5]: 0.00027 µmol/min/mg

B2: UDP-glucuronosyltransferase 1A7 (Homo sapiens) (protein)
chain: MARAGWTGLLPLYVCLLLTCGFAKAGKLLVVPMDGSHWFTMQSVVEKLILRGHEVVVVMPEVSWQLGRSLNCTVKTYSTSYTLEDQDREFMVFADARWTAPLRSAFSLLTSSSNGIFDLFFSNCRSLFNDRKLVEYLKESCFDAVFLDPFDACGLIVAKYFSLPSVVFARGIFCHYLEEGAQCPAPLSYVPRLLLGFSDAMTFKERVWNHIMHLEEHLFCPYFFKNVLEIASEILQTPVTAYDLYSHTSIWLLRTDFVLEYPKPVMPNMIFIGGINCHQGKPVPMEFEAYINASGEHGIVVFSLGSMVSEIPEKKAMAIADALGKIPQTVLWRYTGTRPSNLANNTILVKWLPQNDLLGHPMTRAFITHAGSHGVYESICNGVPMVMMPLFGDQMDNAKRMETKGAGVTLNVLEMTSEDLENALKAVINDKSYKENIMRLSSLHKDRPVEPLDLAVFWVEFVMRHKGAPHLRPAAHDLTWYQYHSLDVIGFLLAVVLTVAFITFKCCAYGYRKCLGKKGRVKKAHKSKTH
Km [6]: 9.4 µM
Vmax [6]: 4e-05 µmol/min/mg

B3: UDP-glucuronosyltransferase 1A1 (Homo sapiens) (protein)
chain: MAVESQGGRPLVLGLLLCVLGPVVSHAGKILLIPVDGSHWLSMLGAIQQLQQRGHEIVVLAPDASLYIRDGAFYTLKTYPVPFQREDVKESFVSLGHNVFENDSFLQRVIKTYKKIKKDSAMLLSGCSHLLHNKELMASLAESSFDVMLTDPFLPCSPIVAQYLSLPTVFFLHALPCSLEFEATQCPNPFSYVPRPLSSHSDHMTFLQRVKNMLIAFSQNFLCDVVYSPYATLASEFLQREVTVQDLLSSASVWLFRSDFVKDYPRPIMPNMVFVGGINCLHQNPLSQEFEAYINASGEHGIVVFSLGSMVSEIPEKKAMAIADALGKIPQTVLWRYTGTRPSNLANNTILVKWLPQNDLLGHPMTRAFITHAGSHGVYESICNGVPMVMMPLFGDQMDNAKRMETKGAGVTLNVLEMTSEDLENALKAVINDKSYKENIMRLSSLHKDRPVEPLDLAVFWVEFVMRHKGAPHLRPAAHDLTWYQYHSLDVIGFLLAVVLTVAFITFKCCAYGYRKCLGKKGRVKKAHKSKTH
Km [7]: 24.6 µM
Vmax [7]: 0.00067 µmol/min/mg
Km [8]: 32.9 µM
Vmax [8]: 0.00014 µmol/min/mg

B4: UDP-glucuronosyltransferase 1A8 (Homo sapiens) (protein)
chain: MARTGWTSPIPLCVSLLLTCGFAEAGKLLVVPMDGSHWFTMQSVVEKLILRGHEVVVVMPEVSWQLGKSLNCTVKTYSTSYTLEDLDREFMDFADAQWKAQVRSLFSLFLSSSNGFFNLFFSHCRSLFNDRKLVEYLKESSFDAVFLDPFDACGLIVAKYFSLPSVVFARGIACHYLEEGAQCPAPLSYVPRILLGFSDAMTFKERVRNHIMHLEEHLFCQYFSKNALEIASEILQTPVTAYDLYSHTSIWLLRTDFVLDYPKPVMPNMIFIGGINCHQGKPLPMEFEAYINASGEHGIVVFSLGSMVSEIPEKKAMAIADALGKIPQTVLWRYTGTRPSNLANNTILVKWLPQNDLLGHPMTRAFITHAGSHGVYESICNGVPMVMMPLFGDQMDNAKRMETKGAGVTLNVLEMTSEDLENALKAVINDKSYKENIMRLSSLHKDRPVEPLDLAVFWVEFVMRHKGAPHLRPAAHDLTWYQYHSLDVIGFLLAVVLTVAFITFKCCAYGYRKCLGKKGRVKKAHKSKTH
Km [9]: 87.5 µM
Vmax [9]: 0.00054 µmol/min/mg
Km [10]: 70.9 µM
Vmax [10]: 0.001 µmol/min/mg

B5: UDP-glucuronosyltransferase 1A10 (Homo sapiens) (protein)
chain: MARAGWTSPVPLCVCLLLTCGFAEAGKLLVVPMDGSHWFTMQSVVEKLILRGHEVVVVMPEVSWQLERSLNCTVKTYSTSYTLEDQNREFMVFAHAQWKAQAQSIFSLLMSSSSGFLDLFFSHCRSLFNDRKLVEYLKESSFDAVFLDPFDTCGLIVAKYFSLPSVVFTRGIFCHHLEEGAQCPAPLSYVPNDLLGFSDAMTFKERVWNHIVHLEDHLFCQYLFRNALEIASEILQTPVTAYDLYSHTSIWLLRTDFVLDYPKPVMPNMIFIGGINCHQGKPLPMEFEAYINASGEHGIVVFSLGSMVSEIPEKKAMAIADALGKIPQTVLWRYTGTRPSNLANNTILVKWLPQNDLLGHPMTRAFITHAGSHGVYESICNGVPMVMMPLFGDQMDNAKRMETKGAGVTLNVLEMTSEDLENALKAVINDKSYKENIMRLSSLHKDRPVEPLDLAVFWVEFVMRHKGAPHLRPAAHDLTWYQYHSLDVIGFLLAVVLTVAFITFKCCAYGYRKCLGKKGRVKKAHKSKTH
Km [11]: 10.3 µM
Vmax [11]: 0.00103 µmol/min/mg
